Test results as given in IntAct's records for PubMed 16280320.

B1: Dolichol-phosphate mannosyltransferase subunit 3 (Cricetulus griseus (Chinese hamster)), Q4LDX8 (parent)
chain: MTKLAQWLWGLALLGSAWAALTMGALGLELPFPCQEVLWPLPAYLLVSAGCYALGTVGYRVATFHDCEDAARELQSQILEARADLARRGLRF

Variants of: B1
Conditions: with dpm1_human DPM1, O60762
Chain of dpm1_human DPM1, O60762 (O60762 whole entry): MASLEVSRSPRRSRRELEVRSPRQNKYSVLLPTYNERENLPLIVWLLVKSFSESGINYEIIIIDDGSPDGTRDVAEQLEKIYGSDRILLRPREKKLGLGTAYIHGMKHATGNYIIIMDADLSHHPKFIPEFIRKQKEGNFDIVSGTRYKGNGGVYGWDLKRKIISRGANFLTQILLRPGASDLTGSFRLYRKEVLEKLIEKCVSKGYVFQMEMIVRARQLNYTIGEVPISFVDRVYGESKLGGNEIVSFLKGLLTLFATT

| effect of a mutation on the interaction | Variant |
| --- | --- |
| disrupting interaction | L74S;I78T;L85S |
